Data as given in paper PMC4243253.

Substrate: N[C@@H](CC(=O)c1ccccc1NC=O)C(=O)O
Experiment: purified protein
Assay type: biochemical, Burkholderia cenocepacia
Settings: 0.1 M sodium phosphate, pH 7.4, 20 μM ZnCl2, 25°C

B1: BcKynB (Burkholderia cenocepacia J2315) (protein)
chain: MDTLWDISPPVSPATPVWPGDTPVAVERVWRMEAGSPVNVARLTLSPHTGAHCDAPLHYDADGAPIGAVPLDTYLGPCRVIHCIGAAPVVRPADVEAALDGVPPRVLLRTYARAAVEQWDSNFCAVAPDTVDLLAAHGVKLIGIDTPSLDPQESKTMDAHRRVRAHRMAILEGIVLDDVPPGDYELIALPLKFATLDASPVRAVLRALPAQAS
Km: 0.57 ± 0.02 mM
Vmax: 0.0582 µmol/min
kcat: 43.9 s⁻¹
kcat/Km: 77100 M⁻¹ s⁻¹
